In the nanobody polyreactivity screen of Harvey et al. (2022):

Assay: yeast display, Sf9 membrane polyspecificity reagent, FACS + sequencing; frameworks hold sequencing errors
Procedure, shortened: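 Genes from sorted yeast were amplified by colony PCR, read by MiSeq 2 × 250 sequencing and filtered on CDR length. These cells carried a synthetic nanobody library in Saccharomyces cerevisiae BJ5465 and were sorted by FACS into low and high (top ~1%) gates on anti-HA and streptavidin fluorescence. Polyreactivity is labelled according to the gate of origin.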

Row | Sequence | polyreactivity (PSR sort gate)
1 | QVQIVESGGGLVQAGGSLRLSCDASGSILLWNTMGWYRQAPGKERELVADSSLSASSTYYADSVKGRFTISRDNAQNTVYLELNSLKPEDTAVYFCAADEYSPDYGQGYDYWGEGTQVTVSS | low polyreactivity
2 | QVQIVESGGGLVQAGGSLRLSCGASGLSFYYYAMGWYRQAPGKERELVASISTGGNTYYADSVKGRFTISRVNAKNTVYLQMNSLNPEDTAVYYCAAGLYSWSGYASYNSAYGYWGQGTQVTVSS | low polyreactivity
3 | QVQIVESGGGLVQAGGSLRLSCPASGSIFPQYAMGWSRQAPRKERELVAGISGSGGGTYYADSVKGRITILRDNAKNNVFLQMNSVKPEETAVYYCNALYAPYGWFYGLYDYGGQGTQVTVSS | low polyreactivity
4 | QVQIVESGGGLVQAGGSLRLSWAASGSNLDFNAMGWYRQAHGKERELVAAINNSGGSTYYADSLKGRFTISRDTAKKTVYLQMNRLKPEDTAVYYCARYAFWKRAYWGQGTQETVSS | low polyreactivity
5 | QVQIVESGGGLVQAGGSLRVSCAASGSILSKYDMGWYRPAPGKERELVAVISSRGGSTYYADSVKGRFTISRDNAKNTVYLQMNSLKPEDTAVYYCNARSGRGYGYWGQGTQVTVSS | high polyreactivity
6 | QVQIVESGGGLVQAGGSLRVTCAASGSIFPPKAMGWYRQAPGKERELLADISGSGRTYYADSVKGRFTISRDNAKNTVYLQMNSLNPEDTAVYYCAARQQRRPTTRVFGYWGQGTQVTVSS | high polyreactivity
7 | QVQIVESGGGLVQAGGSRRFSCAASGGTFNWNAMGWYRQAPGKERELFAAINRTGGSTYYADSVKARFTISRDNAMNTVYLQMNSLKPEDTAVYYCAKRYYRFYLGWPPEDSWGQGTQVSVSS | low polyreactivity
8 | QVQIVESGGGLVQAGRSLRLSCAASGLIFRRYTMGWYRQAPGKERELVAAIRNSGSSTDYADSVKGRFTISRDNAKNTVYLQMNSLKPEYTAVYYCAKRSACKLTYDSWGQGTQVTGSS | low polyreactivity
9 | QVQIVESGGGLVQPGGSLRLSCAASGITFYKYAMGWYRPAPGKERELLAAISKSGGRTYYADSVKGRFTISRDNAKNTVYLQMNSLKPEDTAVYYCNAQPNYAYHGEDDYWGQGNQVTVSS | high polyreactivity
10 | QVQIVESGGGLVQPGGSLRLSCAASGSTFTRNAMGWYRQAPGKERELVAAISFSGGSTYYADSVKGRFTISRDTAKNTVYLQMNSLKPEDTAVYYCAAEEGRVFSGGYDYWGQGTQVTVSS | high polyreactivity
11 | QVQIVESGGGVVQAGGSLRLICAASGSTFLVYAMGWYRQAPGKERELVAAISGRGGRTYYADSVKGRFTISRDIAKNTVYLQMNSLKPEDTAVYYCAKVSKYGAYDYWGQGTQVTVSS | high polyreactivity
12 | QVQIVESGGRLVQAGGSLRLSCAASGLTFRRYAMGWYRQAPGKERELVASITYRGGSTYYADSVKARFTISRDNAKNTVYLQINSLKPEDTAVYHCNAKGQRNKRCRGYWGQGSQVTVSS | high polyreactivity
13 | QVQIVESGGVLVQAGGSLRLSCAASGRIFGSYAMGWYRQAPGKERELVAGIRSVGSTNYADSVKGRFTISRDNEKNTVYLQMNSLKPEDTAVYYCAACLWHPTFGYWGQGTQVTVSS | low polyreactivity
14 | QVQIVESGRGLVQAGGSLRLSCAASGSIFKKYAMGWYRQAPGKERELVAAISSRGGRTYYADSVKGRFTISRDNAKNTVYLQMNSLKPEDTAVYYCNTDISQPGAYDYWGQGTQVTVSS | high polyreactivity
15 | QVQIVESWGGLVQAGGSLRLSCAASGSTIYTYPMGWYRQAPGKERELFAAISYRGGSTYYADSVKVRYSISRDNAKNTVYLQMKSLKPEDTAVYYCNVDGVVVGTKRGGYDYWGQGTQVTVSS | low polyreactivity
16 | QVQLAESGACLVQAGGRLRLSCAASGRIFSFYAMGWYRQAPGKERELVITSGGDTNYADSVKGRFTISRDNAKNSVYLQMNSLKPEDTAVYYCNAEGDRSQPYNFDYWGQGTQVTVSS | low polyreactivity
17 | QVQLAESGGGLVQAGGSLRLSCAASGLTFNAYAMGWYRQAPGKERELVADITTSDGSTFYADSVKGRFTISRDNAKNTVYLQMNRLKPEDTAVYYCNADAYGWYSGPWFKWLLWYDYWGQGTQVTVSS | low polyreactivity
18 | QVQLAESGGGLVQAGGSLRLSCAASGRTFGRYVMGWYRQAPGKERELVAAITSSSSSTYADSVKGRFTISRDNAKNTVYLQMNSLKPEDTAVYYCNKRYTSRHRPEYDYWGQGTQVTVSS | high polyreactivity
19 | QVQLAESGGGLVQAGGSLRLSCAASGSIFWGNAMGWYRQATGKERELVAAIDWSGGSTYYADSVKGRFTISRDNGKNTVYLQMNSLKAEDTAVYYCAASGRYDYDYWGQGTQVTVSS | low polyreactivity
20 | QVQLAESGGGLVQAGGSLRLSCAASGSNFSPNAMGWYRQAPGKERELVAAITAGARTNYADSVKGRFTISRDNSKNTFYLQMNSLKPEDTAVYYCNAESYYDYNYWGQGTQVTVSS | low polyreactivity
21 | QVQLDESGRGLVQAGGSLRLSCAASGSTFGRYAMGRYREAPGKERELVAAISRGGGSTYYADSVKGRFTISRDNAKNTVYLQMNSLKPEDTAVYYCATDQNYPYSGGGDYWGQGTQVTVSS | low polyreactivity
22 | QVQLEDSGGGLVQAGGSLPLSCAASGRTFGLNVMGWSRQATGTERELLASIRNIGGSTYYADSVKGRFTISCDNAKNTVYLQMNSLKPEDTAVFYCAAVTRSWVHYRYYYWGQGTQVTVSS | high polyreactivity

Row | Sequence | polyreactivity (PSR sort gate)
23 | QVQLEDSGGGLVQAGGSLRLSCAASGATFDGYTMAWYRQAPGKERELVAAISWRGTSTYYADSVKGRFTISRDNAKNTVYLQMNSLKPDDTAVYYCAADAYSGYDYWGQGTQVNVSS | low polyreactivity
24 | QVQLEDSGGGLVQAGGSLRLSCAASGRIFGKYAMGWYRQAPGKERELVAAISYSGGRTYYADSVKGRFTISRDNAKNTVYLQMNSLTPEDTAVYYCAAVYHGINSYDYDYSGQGTQVTVSS | high polyreactivity
25 | QVQLEDSGGGLVQAGGSLRLSCAASGRIFGTNAMGWYRQAPGKERELVATITRGGGNTYYADSVKGRFTISRDNAKNTVYLQMNSLKPEDTAVYYCAAKFNRFAWYSHYDYWGQGTQVTVSS | low polyreactivity
26 | QVQLEDSGGGLVQAGGSLRLSCAASVSTFSRNAMGWYRQAPGKEREFVAAISWSGSSTYYADSVKGRFTISRDNAKNTVFLQMNSLKPEDTAVYYCAARETWYPYYWMGYWGQGTQVTVSS | high polyreactivity
27 | QVQLEDSGGGLVQAGGSLRLSSAASGIIFYPNAMGWYRQSPGKERELVAAITSDGSTYYADSVKGRFTISRDNAKNTVYLQMNSLKPEDTAVYYCDDWDDYGYDYWGQGTQVTVSS | low polyreactivity
28 | QVQLEDSGGGLVQAGGSLRLTSPASGSIFWYYDMGWYRQAPGKERELVAAITVIGSSTNYADSVKGRFTNSRDNAKITVYLQMNRLKPEDTAVYYCAAVRPPTPSRRREDYWGQGTQVTVSS | low polyreactivity
29 | QVQLEDSRGGLVQAGGSLRLSCAASGLILASYAMGWNRQAQGKERQLVSAISRSGGSTYYEDSVKVRFTISRDNAKITVYLQMKSLKPEHTAVYYFAAKYPPKTPVNTYGNSFYYWGQGTQVTVSS | low polyreactivity
30 | QVQLEEAGGGLVQAGGSLRLRCAASGRTFWYYAMGWYRQAPGKERELVAAITSGGSTNYADSVKGRFTISRDNEKNTVYLQMNSLKPEDTAVYYCAKLFRKRRSWDWYDYWGQGTQVTVSS | high polyreactivity
31 | QVQLEESAGGLVQAGGSLRLSCAASGFTFRRYARGWYRQAPGKERELVAAISSRGGSTYYADSVKGRFTISRDNAKNTGYLQMKSLKPEDTAVYYCNRDAWGGTDLLGYNYWGHGTQVTVSS | high polyreactivity
32 | QVQLEESAGGLVQAGGSLRLSCAASGRIFKAYAMGWYRQAPGKERELVASISRDGSTSYADSVKGRFTISRDNEKNTVYLQMNSLKPEDTAVFYCAGPSYRTRYYFWGQGTQVNVSS | high polyreactivity
33 | QVQLEESCGGLVQAGGSHRLICAASGPTIRYNGIGWYRQAPRKEREFLAAISWSGGSTYYADSVKGRFTISRDYAKNTVYLQMNSLKPEDTAVYYCNVDFHWQRFHHISADYDYWGLGTQVTVSS | high polyreactivity
34 | QVQLEESGAGLVQAGGRHRLSCPASGFIFDWNAMGWYRQPPGKERELVAAISDDGDSTDYADSVKGRFTISRDNAKNTVYLQMNSLKPEDTAVYSCAANTERVYPCFSFGYWGQGTQVTVSS | low polyreactivity
35 | QVQLEESGAGLVQAGGSLRLSCAASVSIFRQYAMGWYRQAPGKERELFAAINYSGGKTYYADSVKGRFTISRDNAKNTVYLQLNSLKPEDTAVYYCAADSVRHYWWAYYYWGQVTQVTVSS | low polyreactivity
36 | QVQLEESGGALVQAGGSLRLSCAASGRTFSGNAMGWYRQAPGKERELVAAISSGGSTNYADSVKGRFTISRDNAKNTVYLQMNSLKPEDTAVYYCAADEWRFPSYAYYYWGQGTQVTVSS | low polyreactivity
37 | QVQLEESGGCLVQAGGSLRLSCAASGYIFTPYAKGWYRPAPGKEREFVAAITRSGGSTYYADSVKGRFTISRDYAKNTVYLQMNSLKPEDTAVYYCARYANYDKRYDYWGQGTQVTVSS | high polyreactivity
38 | QVQLEESGGGFVQAGGSLRLSCAASGSIFYYYVMGLYRQAAGKERELVAALTNSDRTYYADSVKGRFTISRDNAKNTVYLQMTSLKPEDTAVYYCAADYYWSPYYVYQFDYWGQGTQVTVSS | low polyreactivity
39 | QVQLEESGGGIVQAGGSLRLRCAAAGRSVYYYAMAWYRQAPGKEREFVADITARGGSTYYADSVKGRFTISRDNAKNSVYLQMNSLKPEDTAVYYCAAYIYVTYYYWGQGTQVTVSS | high polyreactivity
40 | QVQLEESGGGIVQAGGSLRLSCAASGRTFKLNAMGLYRQAPGKERELVAAISRNGGSTYYADSVKGRFTISRDNAKNTVFLQMNSLKPEDTAVYYCAAVRHGVSLAGYYWGQGTQVTVSS | high polyreactivity
41 | QVQLEESGGGIVQAGGSLRLSCAASGSIFGVYAMGMYRQAPGKERELVAVISRGGTYYADSVKGRFTISRDNAKNTVYLQMHSLKPEDTAVYYCAARTRKSTVFYGLDYWGQGTQVTVSS | high polyreactivity
42 | QVQLEESGGGLDQAGGSLRLTCAASGSIFLWNAMGWSRQSPGKERQLVAAISSGTSTIYADSVKGRFTISRDNAKNTVYLQMNSLKREDTAVYYCAARGRKNQRRYGYWGLGTQVTVSS | low polyreactivity
43 | QVQLEESGGGLFQAGGSLRLRCAASGSIFHINAMGWYRQAPGKERELVADISHRGGSTYYADSVKGRFTISRDNAKNTVYLQMNSLKPEDTAVYYCAVVHVFYAVYYFSFYTYDYWGQGTQVTVSS | low polyreactivity
